# Publication PMC9666628 (Nature Communications, 2022)
# Changes are numbered by the printed parent chain. Values joined by “and” are separate entries in the source; they are usually repeats but may differ in a detail not shown here. Equal entries are not always repeated.
# B1: H3K9me3 peptide, N-terminal FITC (peptide)
# chain: ARTKQTARKSTGGKAPR
# modifications: trimethyl-lysine at K9; fluorescein isothiocyanate (FITC) at the N-terminus
# B2: Cbx6.VD chromodomain, Asp9/Glu33 (tags removed) (domain or fragment)
# chain: GEDVFAAESIIKRRIRKGRIEYLVKWEGWAIKYSTWEPEENILDSRLIAAFEQKERERELYGP
# B3: H3K27me3 peptide, biotinylated (peptide)
# chain: KQLATKAARKSAPATGGVK
# modifications: trimethyl-lysine at K27; biotin followed by an aminohexanoic acid linker at the N-terminus
# Legend:
# Details in all cases: both partners purified
# [1] = target: T1, wild-type Cbx5 chromodomain (tags removed) (human, UniProt P45973 18-75); experiment: fluorescence polarisation; 0.5 nM FITC-labelled peptide; chromodomains 200-0.2 µM (wild type) or 50 µM-50 nM (Cbx7.V1 and all Cbx.VDs); 30 min at 25 °C; 25 mM HEPES pH 7.5, 150 mM NaCl, 1 mM DTT, 0.01% TritonX-100; one-site total binding model
# T1 construct: chromodomain of human Cbx5; also called Cbx5.wt; source: E. coli BL21(DE3), purified (Ni-NTA; tags removed with TEV protease)
# T1 sequence (P45973 18-75, looked up): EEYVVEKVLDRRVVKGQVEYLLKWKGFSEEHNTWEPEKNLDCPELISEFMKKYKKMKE
# [2] = target: T2, wild-type Cbx3 chromodomain (tags removed) (human, UniProt Q13185 29-86); experiment: as above
# T2 construct: chromodomain of human Cbx3; also called Cbx3.wt; source: E. coli BL21(DE3), purified (Ni-NTA; tags removed with TEV protease)
# T2 sequence (Q13185 29-86, looked up): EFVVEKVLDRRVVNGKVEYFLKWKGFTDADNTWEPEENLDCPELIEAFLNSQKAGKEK
# [3] = target: T3, wild-type Cbx2 chromodomain (tags removed) (human, UniProt Q14781 9-62); experiment: as above
# T3 construct: chromodomain of human Cbx2; also called Cbx2.wt; source: E. coli BL21(DE3), purified (Ni-NTA; tags removed with TEV protease)
# T3 sequence: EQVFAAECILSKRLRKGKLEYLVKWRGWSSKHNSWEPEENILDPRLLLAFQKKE
# [4] = target: T4, wild-type Cbx1 chromodomain (tags removed) (human, UniProt P83916 20-73); experiment: as above
# T4 construct: chromodomain of human Cbx1; also called Cbx1.wt; source: E. coli BL21(DE3), purified (Ni-NTA; tags removed with TEV protease)
# T4 sequence (P83916 20-73, looked up): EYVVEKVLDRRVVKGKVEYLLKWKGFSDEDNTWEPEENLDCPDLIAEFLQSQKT
# [5] = target: T5, wild-type Cbx8 chromodomain (tags removed) (human, UniProt Q9HC52 8-61); experiment: as above
# T5 construct: chromodomain of human Cbx8; also called Cbx8.wt; source: E. coli BL21(DE3), purified (Ni-NTA; tags removed with TEV protease)
# T5 sequence: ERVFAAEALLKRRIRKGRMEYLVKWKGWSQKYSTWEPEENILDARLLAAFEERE
# [6] = target: T6, Cbx7.VD chromodomain, Q9D/K33E (tags removed) (human, UniProt O95931 7-66, Q9D | K33E); experiment: as above
# T6 construct: chromodomain of human Cbx7 (Cbx7-chromo), UniProt O95931; source: E. coli BL21(DE3), purified (Ni-NTA; tags removed with TEV protease)
# T6 sequence: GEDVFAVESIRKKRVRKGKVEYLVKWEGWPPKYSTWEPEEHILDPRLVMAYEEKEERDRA
# [7] = target: T7, wild-type Cbx7 chromodomain (tags removed) (human, UniProt O95931 7-66); experiment: as above
# T7 construct: chromodomain of human Cbx7 (Cbx7-chromo), UniProt O95931; also called Cbx7.wt; source: E. coli BL21(DE3), purified (Ni-NTA; tags removed with TEV protease)
# T7 sequence: T6 sequence with D3Q, E27K
# [8] = target: T8, Cbx7.V1 (tags removed, used for FP and ITC) (human, UniProt O95931 7-66, E8D (printed as the back-mutation D8E) | Q9D | V10I (printed as the …)); experiment: as above
# T8 construct: chromodomain of human Cbx7 (Cbx7-chromo), UniProt O95931; source: E. coli BL21(DE3), purified (Ni-NTA; tags removed with TEV protease)
# T8 sequence: T6 sequence with E2D, V4I, P31L, K32E
# [9] = target: T9, Cbx7 K33E chromodomain (tags removed) (human, UniProt O95931 7-66, K33E); experiment: as above
# T9 construct: chromodomain of human Cbx7 (Cbx7-chromo), UniProt O95931; source: E. coli BL21(DE3), purified (Ni-NTA; tags removed with TEV protease)
# T9 sequence: T6 sequence with D3Q
# [10] = target: T10, Cbx7 Q9D chromodomain (tags removed) (human, UniProt O95931 7-66, Q9D); experiment: as above
# T10 construct: chromodomain of human Cbx7 (Cbx7-chromo), UniProt O95931; source: E. coli BL21(DE3), purified (Ni-NTA; tags removed with TEV protease)
# T10 sequence: T6 sequence with E27K
# [11] = target: B1; experiment: as above
# Cbx7.V1 back-mutant E38K = target: T11, Cbx7.V1 back-mutant E38K (human, UniProt O95931 7-66, E8D (printed as the back-mutation D8E) | Q9D | V10I (printed as the …)); experiment: BLI; biotinylated peptide on streptavidin biosensor tips, chromodomain in solution at 5 or 1 µM; 25 °C; 25 mM HEPES pH 7.0, 150 mM NaCl, 1 mg/ml BSA, 0.01% Tween-20; steady-state fit, Langmuir model; values of single replicates
# T11 construct: chromodomain of human Cbx7, variant V1 with residue 38 put back to the wild type; residues numbered on full-length Cbx7; Tags probably still on the protein in BLI (removal is told for FP and ITC only); source: E. coli BL21(DE3), purified (Ni-NTA)
# T11 sequence: T6 sequence with E2D, V4I, P31L
# Cbx7.V1 back-mutant D9Q = target: T12, Cbx7.V1 back-mutant D9Q (human, UniProt O95931 7-66, E8D (printed as the back-mutation D8E) | V10I (printed as the back-mutation …)); experiment: as above
# T12 construct: chromodomain of human Cbx7, variant V1 with residue 9 put back to the wild type; residues numbered on full-length Cbx7; Tags probably still on the protein in BLI (removal is told for FP and ITC only); source: E. coli BL21(DE3), purified (Ni-NTA)
# T12 sequence: T6 sequence with E2D, D3Q, V4I, P31L, K32E
# Cbx7.V1 back-mutant I10V = target: T13, Cbx7.V1 back-mutant I10V (human, UniProt O95931 7-66, E8D (printed as the back-mutation D8E) | Q9D | K33E | P37L (printed as the …)); experiment: as above
# T13 construct: chromodomain of human Cbx7, variant V1 with residue 10 put back to the wild type; residues numbered on full-length Cbx7; Tags probably still on the protein in BLI (removal is told for FP and ITC only); source: E. coli BL21(DE3), purified (Ni-NTA)
# T13 sequence: T6 sequence with E2D, P31L, K32E
# [12] = target: T14, Cbx7.V1 chromodomain variant (protein used for BLI) (human, UniProt O95931 7-66, E8D (printed as the back-mutation D8E) | Q9D | V10I (printed as the …)); experiment: as above
# T14 construct: chromodomain of human Cbx7 with the six substitutions of the phage-selected variant V1; residues numbered on full-length Cbx7; for BLI they were probably still on the protein; source: E. coli BL21(DE3), purified (Ni-NTA)
# T14 sequence: T6 sequence with E2D, V4I, P31L, K32E
# Cbx7.V1 back-mutant L37P = target: T15, Cbx7.V1 back-mutant L37P (human, UniProt O95931 7-66, E8D (printed as the back-mutation D8E) | Q9D | V10I (printed as the …)); experiment: as above
# T15 construct: chromodomain of human Cbx7, variant V1 with residue 37 put back to the wild type; residues numbered on full-length Cbx7; Tags probably still on the protein in BLI (removal is told for FP and ITC only); source: E. coli BL21(DE3), purified (Ni-NTA)
# T15 sequence: T6 sequence with E2D, V4I, K32E
# Cbx7.V1 back-mutant D8E = target: T16, Cbx7.V1 back-mutant D8E (human, UniProt O95931 7-66, Q9D | V10I (printed as the back-mutation I10V) | K33E | P37L (printed as the …)); experiment: as above
# T16 construct: chromodomain of human Cbx7, variant V1 with residue 8 put back to the wild type; residues numbered on full-length Cbx7; Tags probably still on the protein in BLI (removal is told for FP and ITC only); source: E. coli BL21(DE3), purified (Ni-NTA)
# T16 sequence: T6 sequence with V4I, P31L, K32E
binder,measurement,setting,value
B1,Kd,[1],5 µM
same,Kd,[2],2 µM
same,Kd,[3],> 200 µM
same,Kd,[4],0.5 µM
same,Kd,[5],> 200 µM
same,Kd,[6],8 µM
same,Kd,[7],30 µM
same,Kd,[8],7 µM
same,Kd,[9],20 µM
same,Kd,[10],10 µM
B2,Kd,[11],> 50 µM
B3,Kd,Cbx7.V1 back-mutant E38K,1.5 µM and 1.7 µM
same,Kd,Cbx7.V1 back-mutant D9Q,1.6 µM and 2.7 µM
same,Kd,Cbx7.V1 back-mutant I10V,2.8 µM and 1.6 µM
same,Kd,[12],2 µM and 2.2 µM
same,Kd,Cbx7.V1 back-mutant L37P,2.8 µM and 2.2 µM
same,Kd,Cbx7.V1 back-mutant D8E,1.9 µM and 2.2 µM
